For data set [1], the target named is T1, hPLD3 luminal domain (Homo sapiens, UniProt Q8IV08 61-490).
T1 sequence: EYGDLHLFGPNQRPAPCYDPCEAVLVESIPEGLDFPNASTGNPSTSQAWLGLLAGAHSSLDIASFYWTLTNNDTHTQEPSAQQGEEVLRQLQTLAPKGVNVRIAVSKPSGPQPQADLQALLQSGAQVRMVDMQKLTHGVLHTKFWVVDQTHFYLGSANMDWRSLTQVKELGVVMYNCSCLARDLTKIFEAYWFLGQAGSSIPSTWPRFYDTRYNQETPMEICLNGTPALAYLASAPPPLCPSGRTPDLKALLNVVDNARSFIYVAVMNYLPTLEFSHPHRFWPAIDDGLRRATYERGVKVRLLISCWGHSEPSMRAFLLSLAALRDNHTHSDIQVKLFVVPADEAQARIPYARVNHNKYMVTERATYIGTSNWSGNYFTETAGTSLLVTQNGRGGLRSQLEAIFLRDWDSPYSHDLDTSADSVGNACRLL
In words: ITC; N = 1.0; dH -12 kcal/mol; no phosphorothioate, cleavable substrate; ITC: 20 mM HEPES pH 7.5, 150 mM NaCl, 10 C; 380 uM ssDNA in syringe, 10 uM hPLD3 in cell. Crystals: 15% PEG 4000, 0.02 M NaI, 0.9 M ammonium sulfate, 15% glycerol. To be noted: protein: recombinant; tags: C-terminal 6xHis; chain copies: 2; single strand. (In ITC the heat of successive injections is recorded.)

The target of data set [2] is T1, hPLD3 luminal domain. Put plainly: ITC; N = 0.9; dH 30 kcal/mol; ITC: 20 mM HEPES pH 7.5, 150 mM NaCl, 10 C; 380 uM ssDNA in syringe, 10 uM hPLD3 in cell. Crystals: 15% PEG 4000, 0.02 M NaI, 0.9 M ammonium sulfate, 15% glycerol. The following applies: protein: recombinant; tags: C-terminal 6xHis; chain copies: 2; single strand.
The target in data set [3] is T1, hPLD3 luminal domain. In words: ITC; ITC: 20 mM HEPES pH 7.5, 150 mM NaCl, 10 C; 380 uM ssDNA in syringe, 10 uM hPLD3 in cell. Crystals: 15% PEG 4000, 0.02 M NaI, 0.9 M ammonium sulfate, 15% glycerol. To be noted: protein: recombinant; tags: C-terminal 6xHis; chain copies: 2; single strand.
Data set [4] concerns the molecule itself. Put plainly: SEC; HiLoad 16/600 Superdex 200 pg column, HEPES buffer pH 7.5, calibrated with LMW and HMW protein standards. (In gel filtration, larger molecules generally elute earlier.)
Data set [5] deals with the molecule itself. In words: AUC; sedimentation velocity, 40000 rpm, 20°C, 8 or 16 μM hPLD3, absorbance at 280 or 290 nm.

Consider TTCATG (ssDNA), for which, in the data set with hPLD3 luminal domain [1], the dissociation constant Kd (in general, the constant that tells how readily two partners part at equilibrium) was 20 ± 2 µM.

Consider TTCATG (ssDNA, phosphorothioate between nt 1 and 2 (mixed Rp/Sp)) [T*TCATG], for which, in the data set with hPLD3 luminal domain [2], the equilibrium dissociation constant (Kd) is 28 ± 4 µM.

B1: T*T*C*A*T*G* (ssDNA)
DNA: TTCATG
modifications: phosphorothioate at all linkages (mixed Rp/Sp); printed with * also after the last G
On to B1, for which the binding result in the data set with hPLD3 luminal domain [3] is recorded as “no binding”.

B2: luminal domain (residues 61–490) of human PLD3 (domain or fragment, UniProt Q8IV08 61-490, looked up)
chain: T1 sequence
modifications: N-glycosylated (Man5GlcNAc2, high-mannose type) at Asn97, Asn132, Asn236, Asn284 and Asn387, at least partially; Cys300 oxidized to cysteine sulfonic acid (OCS)
notes: human PLD3 (phospholipase D3), luminal domain, residues 61-490, starting directly after the transmembrane segment; In the crystals residues 72–98 and 101–490 are seen, 61–71 and 99–100 are not visible; also called hPLD3; hPLD3_(61-490); source: HEK293S GnTI- stably transfected monoclonal cell line, secreted into culture supernatant, purified (NiNTA, SEC)
B2: the stoichiometry N (as a rule, a count of units in the complex or per binding partner) in data set [4] was found to be 2; in data set [5], 4.

The values are drawn from paper PMC10783504, “Structural analysis of PLD3 reveals insights into the mechanism of lysosomal 5′ exonuclease-mediated nucleic acid degradation” (Nucleic Acids Research, 2023).
